± gives the standard deviation of the averaged measurements.
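Also: ATP exposure 15 min at 22 °C before imaging.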

The data set deals with ATP. Briefly: switch fluorescence ratio, 500 uM ATP over buffer (Cy3 cluster intensity, sum of 5 cycles each) (fold (ratio)); higher = stronger signal-on switching upon ATP binding; sequences stand for … in TCGTCGGCAGCGTCAGATGTGTATAAGAGACAGTTTTTTTTTTTTTTTTTTTTTTTTT…TC. The note with it: aptamer strand: ATP DNA aptamer (quencher-CACCTGGGGGAGTATTGCGGAGGAAGG + anchor), 100 nM annealed; ATP concentration: 500 uM. Put shortly: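 Clusters carrying Cy3-labelled switching strands on a modified Illumina MiSeq flow-cell were annealed to 100 nM quencher-labelled ATP aptamer and imaged in selection buffer. They were imaged again after 15 min with 500 uM ATP at 22 °C, over five buffer/ATP cycles with NaOH stripping and re-annealing in between. For each cluster, the fluorescence ratio is the summed Cy3 intensity of the target cycles divided by that of the buffer cycles, averaged per switch-domain sequence. Clusters outside 100-1000 RFU were left out.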
On to GCAAATTTTA, for which the switch fluorescence ratio was 1.02 ± 0.015. Regarding TAGGAATGGG, the switch fluorescence ratio was 0.989 ± 0.034.

For TTTGGAGGGG, the switch fluorescence ratio was 1.03 ± 0.039. For the sequence AGGTCTAGAG, the switch fluorescence ratio came out at 0.976 ± 0.024. For the sequence AGTCCTAGCC, the switch fluorescence ratio was found to be 0.97 ± 0.012.

In the case of GTTGTGCTGG, the switch fluorescence ratio came out at 1.01 ± 0.018. Then GATGTTTACT, with 1.0047 ± 0.00016; and AAGCCGTGCG, with 1.02 ± 0.014; and ATGATTTGAG, with 0.9905 ± 0.0022. Then GTTAATGTCC, with 0.994 ± 0.014; and CAGTGATCTT, with 0.97521 ± 0.00076; and CATTGGAGGA, with 1.018 ± 0.0011. Take ACTAGTTGTC: the switch fluorescence ratio stood at 0.991 ± 0.033. Under ATGGGGGGAT stands 1.23 ± 0.58; under CCACAGTAAT, 4.75 ± 0.34. Consider TAAACTGCGA, for which the switch fluorescence ratio was 1.07 ± 0.054. Take AGCGTGTGCG: the switch fluorescence ratio amounted to 0.989 ± 0.055. With TAGGGGTACT, the switch fluorescence ratio worked out at 1.41 ± 0.61. Turning to TTAGAGGATT, the switch fluorescence ratio is 1.004 ± 0.007. Consider CGGCGGGCAA, for which the switch fluorescence ratio was 1.81 ± 0.69. In the case of TGGTGTCGT, the switch fluorescence ratio was 1.01 ± 0.011. For the sequence TGGGGCATTT, the switch fluorescence ratio was 1 ± 0.036. With TCAACGTCAG, the switch fluorescence ratio turned out to be 0.9872 ± 0.0048. With GATGTTGCCG, the switch fluorescence ratio turned out to be 1.05 ± 0.057. As to AATCCTGGAG, the switch fluorescence ratio amounted to 1.02 ± 0.011.

Consider GAGAGGGTAG, for which the switch fluorescence ratio is 0.9801 ± 0.0095. As for GGTGGATTCG, the switch fluorescence ratio was 1.06 ± 0.063. Consider TGGGGTTTTT, for which the switch fluorescence ratio was 0.984 ± 0.026. Consider ATTGTTATTG, for which the switch fluorescence ratio came to 0.967 ± 0.065.

As to GAGTTGGTAG, the switch fluorescence ratio came out at 0.969 ± 0.021. Under ATGTTTAATC stands 0.986 ± 0.023.

TTTGCTGGTC: the switch fluorescence ratio turned out to be 1.05 ± 0.025. As for TGCAGTAAGG, the switch fluorescence ratio was found to be 0.97794 ± 0.00081. Under TCCTGGGAT stands 1.01 ± 0.03; under TTTCTCGTTG, 0.9908 ± 0.0074; under GTGCGAGAGC, 1.01 ± 0.043. Regarding TGCAAAGAGC, the switch fluorescence ratio stood at 0.9824 ± 0.0073. With TGCGAATTCG, the switch fluorescence ratio is 0.996 ± 0.037. As to CTATGGAGTG, the switch fluorescence ratio was 0.9928 ± 0.0039. Turning to AGTAGTGCGT, the switch fluorescence ratio is 0.997 ± 0.04. As to TCAGGATGTT, the switch fluorescence ratio is 0.987 ± 0.026.

Regarding TTGAGTTAAA, the switch fluorescence ratio is 0.991 ± 0.037.

Consider CCTGGGAAGG, for which the switch fluorescence ratio turned out to be 0.991 ± 0.025. TTGCGTTTCC: the switch fluorescence ratio worked out at 1.19 ± 0.23. As for TGAGTCTAG, the switch fluorescence ratio is 0.997 ± 0.038.

As to TTCTAATTTG, the switch fluorescence ratio worked out at 0.968 ± 0.058. Under TTAAGTGTAA stands 0.9697 ± 0.0036; under GATCTTCGGC, 0.9541 ± 0.0027. For the sequence CTAAGTCGAG, the switch fluorescence ratio came out at 0.966 ± 0.037. On to TTAATGGGGC, for which the switch fluorescence ratio is 1.01 ± 0.061. Regarding AGGGGGTTAG, the switch fluorescence ratio was found to be 0.989 ± 0.03.

On to AGGACGAGCA, for which the switch fluorescence ratio was 1.12 ± 0.015. TAGCGTGTAG: the switch fluorescence ratio worked out at 1.02 ± 0.022. Regarding GAAAGCATAT, the switch fluorescence ratio is 1.01 ± 0.034. In the case of CGGACGTTTT, the switch fluorescence ratio is 1.17 ± 0.13. Then ATGCTCAGTT, with 0.9836 ± 0.0062. Consider TGGAAGAAAT, for which the switch fluorescence ratio turned out to be 1.02 ± 0.011. For TGTTGAGGGG, the switch fluorescence ratio is 0.964 ± 0.041. Then GACCATTGGA, with 1.006 ± 0.0011. TGGTAAAACT: the switch fluorescence ratio amounted to 1.06 ± 0.034. Regarding GAGGTATGGA, the switch fluorescence ratio came out at 0.9842 ± 0.0019.

Take TTAAGTGAAT: the switch fluorescence ratio was 0.979 ± 0.066.

Regarding GATAAATGGG, the switch fluorescence ratio was found to be 0.994 ± 0.024. Turning to AGCTAGGAGC, the switch fluorescence ratio is 0.972 ± 0.021. As for AGGATTAGGG, the switch fluorescence ratio was 1 ± 0.033.

In the case of TGTGTGTGTG, the switch fluorescence ratio was 0.974 ± 0.017. Then AGTAGGACGC, with 1.02 ± 0.018; and ATATCTCGAG, with 0.981 ± 0.02; and AGCTGTTTAC, with 1.09 ± 0.016.

Consider AGTTATTTCG, for which the switch fluorescence ratio was 0.993 ± 0.018.

With TTCACTTGGA, the switch fluorescence ratio amounted to 1.03 ± 0.033. Regarding TGGGGAAAAG, the switch fluorescence ratio stood at 1.09 ± 0.31.

With TTAATCCCGT, the switch fluorescence ratio was 1.04 ± 0.048. Under TAGTCCGTAA stands 2.06 ± 0.035; under TCGATGGACT, 1.03 ± 0.014. For TAAATTTTTG, the switch fluorescence ratio was determined as 1.07 ± 0.097.

Regarding AAAAGCGATC, the switch fluorescence ratio was determined as 1.14 ± 0.038. Consider TTTGATGGTG, for which the switch fluorescence ratio is 1.04 ± 0.012. Then GATGTAAAGC, with 1.02 ± 0.06.
